Measured values: patent US20150246947A1 (BAXALTA, published 2015)

Key:
human Protein S [1] = target: T1, human Protein S (human, UniProt P07225 42-676); assay: cell-based or functional assay
T1 sequence: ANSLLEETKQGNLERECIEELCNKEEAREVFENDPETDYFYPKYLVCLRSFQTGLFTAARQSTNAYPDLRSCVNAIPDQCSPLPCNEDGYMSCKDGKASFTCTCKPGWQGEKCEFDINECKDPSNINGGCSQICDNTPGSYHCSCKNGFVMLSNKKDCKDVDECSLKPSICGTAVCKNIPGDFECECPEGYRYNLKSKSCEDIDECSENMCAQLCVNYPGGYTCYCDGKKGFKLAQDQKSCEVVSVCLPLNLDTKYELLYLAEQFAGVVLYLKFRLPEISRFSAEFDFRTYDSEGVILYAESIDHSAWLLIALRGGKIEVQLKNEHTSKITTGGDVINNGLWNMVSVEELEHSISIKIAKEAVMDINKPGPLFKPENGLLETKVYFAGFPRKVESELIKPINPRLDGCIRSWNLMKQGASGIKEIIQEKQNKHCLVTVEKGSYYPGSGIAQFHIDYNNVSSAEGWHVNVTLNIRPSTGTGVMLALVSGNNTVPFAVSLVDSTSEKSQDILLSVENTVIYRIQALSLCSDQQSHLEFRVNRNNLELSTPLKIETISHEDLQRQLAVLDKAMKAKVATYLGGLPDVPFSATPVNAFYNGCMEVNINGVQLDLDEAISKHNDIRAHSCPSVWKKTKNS

human Protein S [2] = target: T1, human Protein S; assay: Biacore (SPR), Protein S immobilized
Method in brief: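 Human full-length Protein S was immobilized at 1000 RU on a […] chip in a Biacore 3000 or Biacore T200 instrument. Peptides at various concentrations in HBS-buffer containing 3 mM CaCl₂ and 1% DMSO were injected over the surface, and the chip was regenerated with 4 M MgCl₂ in HBS-buffer. Binding kinetics were determined by surface plasmon resonance: kon and koff were obtained by fitting sensorgrams to a Langmuir binding model, and Kd was calculated from these rate constants.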

human Protein S [3] = target: T1, human Protein S; assay: LANCE TR-FRET; peptide added to preformed C4BP/Protein S complex; competitor C4BP
Description: To investigate the effect of the peptides described herein on PS/C4BP complexes, a LANCE IC50 assay was established using methods similar to those described above. JBS2572 or JBS3216 was added to a preformed C4BP/PS complex. Changes in the complex concentration were followed by recording the TR-FRET signal. For both peptides, a time- and concentration-dependent dissociation of the C4BP/PS complex was observed. […] The time-dependency of the complex reduction was similar for both peptides. After two hours of incubation in the presence of 100 nM JBS2572 or JBS3216, the C4BP/PS complex was reduced to 60% and 50%, respectively. In addition, binding of biotinylated JBS2572 to Protein S was inhibited by C4BP in the LANCE IC50 assay. Pull-down experiments where JBS2697 was coupled to streptavidin sepharose and incubated for one hour at room temperature with (a) Protein S (1.6 pmol) (b) C4BP (8.5 pmol) and (c) Protein S (1.6 pmol)+C4BP (8.5 pmol) supported the results from the modified LANCE IC50 assay. JBS2697 interacted with free Protein S only from experiment (a) with Protein S alone and from experiment (c) with the C4BP-Protein S mixture.

human Protein S [4] = target: T2, human Protein S (UniProt P07225 42-676); assay: LANCE competition
T2 chain: T1 sequence
Method in brief: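 In this LANCE homogeneous time-resolved FRET competition assay, europium-labelled Protein S, ULight-labelled streptavidin and a biotinylated tracer peptide were combined with unlabelled test peptide titrated in three-fold steps. The 50 µl reactions held final concentrations of 10 nM Protein S, 100 nM streptavidin and 300 nM tracer, or 2 nM Protein S and 60 nM tracer on a Tecan F500. After 1 hour at room temperature, signals were read at Ex 340 nm and Em 665 nm. IC50 was determined by non-linear regression of the emission signals.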

Ac-EYYVSAGWYDYNTDTYYEFE-NH2 [JBS3216]
CAT EC50, human hemophilia A patient plasma (human Protein S [1]): 85000 pM | Kd (human Protein S [2]): 200 pM | koff (human Protein S [2]): 0.000233 s⁻¹ | kon (human Protein S [2]): 1.14e+06 M⁻¹ s⁻¹ | IC50 (human Protein S [3]): 300 pM | IC50 (human Protein S [4]): 700 pM
